One block for each binder: values may come before it.
Experiments:
[1] = molecular target: T1, human Siglec-7 expressed on human cells (primary monocytes, dendritic cells, macrophages, NK cells, … (human, UniProt Q9Y286 19-467)); assay: cell-based or functional assay
[2] = molecular target: T1, human Siglec-7 expressed on human cells …; assay: FACS, human primary monocytes, 10 ug/ml mAb
Method: (§1) Initial characterization of Siglec-7 antibodies involved determining their ability to bind Siglec-7 expressed on human primary monocytes, human primary macrophages, human primary dendritic cells, human primary neutrophils, and human primary natural killer (NK) cells. Cells were harvested, plated at 10⁶/ml in a 96 well plate, and incubated in 100 ul PBS containing 2% FBS, 2 mM EDTA and 10 μg/ml Mab and Fc blocking reagent for 1 hour in ice. Cells were washed twice and incubated in 100 ul PBS containing 2% FBS, 2 mM EDTA and 5 ug/ml PE-conjugated secondary antibody for 30 minutes on ice. Cells were washed twice in cold PBS and analyze by flow cytometry on a BD FACS Canto. Data analysis and calculation of MFI values was performed with FlowJo (TreeStar) software version 10.0.7.
(§2) Percent positive binding and mean fluorescent intensity (MFI) values for cell types bound by Siglec-7 antibodies are listed in Table 4A. Binding is compared to an isotype control. The antibodies bind to human primary monocytes, human primary dendritic cells, and human primary macrophages. In Table 4A, “Buffer” refers to cells that were treated only with the PBS buffer described supra; “Secondary Ab” refers to cells that were treated only with the PE-conjugated secondary antibody; “mIgG1,” “mIgG2a,” and “mIgG2b” refer to isotype control antibodies; and “RDS7” refers to commerically available anti-Siglec-7 antibody Mab1138 (R&D Systems; Cat. No. MAB 1138).

[3] = molecular target: T1, human Siglec-7 expressed on human cells …; assay: cell-based or functional assay; remark: listed apart in the source
[4] = molecular target: T1, human Siglec-7 expressed on human cells …; assay: FACS, human primary dendritic cells, 10 ug/ml mAb
Method: as §1, §2

[5] = molecular target: T1, human Siglec-7 expressed on human cells …; assay: FACS, human primary macrophages, 10 ug/ml mAb
Method: as §1, §2

[6] = molecular target: T2, Histidine-tagged human Siglec-7 (NovoProtein) (human, UniProt Q9Y286 19-357, limits assumed); assay: SPR (BiaCore T200, 25 C), antibody captured on anti-mouse IgG, Siglec-7-His 20 nM, single-concentration kinetics
T2 construct: Bought protein; also called purified Siglec-7-his tagged protein; not shown: histidine tag
Method: (§3) SPR data was collected at a rate of 10 Hz at 25′ C on a BiaCore T200 instrument. Data analysis was performed using BiaCore T200 Evaluation Software, version 2.0. HBS-EP+ (100 mM HEPES, 1.5 M NaCl, 30 mM EDTA, 0.5% v/v Surfactant P20, pH 7.4) was used as running buffer and for preparing reagents.
(§4) Mouse-derived antibodies (25 nM) against Siglec-7 were captured (60 s contact time, 30 μL/min flow rate, 0 s stabilization time) on a CM5 sensor chip (GE Healthcare) immobilized with anti-mouse IgG. Histidine-tagged human Siglec-7 (NovoProtein) was then flowed over the captured anti-Siglec-7 surface (120 s contact time, 30 μL/min flow rate, 300 s dissociation time). Concentration of antigen ranged from 5 nM to 100 nM, depending on information obtained from an initial screen. Duplicate single-concentration trials were performed and bracketed by a blank (0 nM antigen) sample. The chip surface was regenerated in between cycles using 10 mM glycine-HCl, pH1.7 (60 s contact time, 30 μL/min flow rate, 60 s stabilization time). The resulting SPR signal was obtained as the difference in response from measurements performed on a blank flow cell.
(§5) Affinity constants (KD) were calculated from the ratio kd/kₐ. For one antibody (clone 1E8), we validated the single-concentration analysis with a multiple-concentration approach (five concentrations of antigen used, plus one blank).

[7] = molecular target: T3, Siglec-7-Fc (plate immobilized) (human, UniProt Q9Y286 19-357, limits assumed); assay: RBC solid adhesion assay, plate-coated Siglec-7-Fc, antibody 0.5 or 1.0 ug/ml; % of RBC binding without antibody
T3 construct: also called Siglec-7-Fc protein; immobilized Siglec-7; not shown: Fc part
Method: To determine which antibodies compete with ligand binding to Siglec-7, a red blood cell (RBC) solid adhesion assay was carried out in accordance with standard protocols (Kelm et al., Current Biology, 1994). Red blood cells are highly decorated with glycoproteins containing sialic acids: therefore, the ability of an antibody to block RBC binding to immobilized Siglec-7 can be used to determine ligand interference. Briefly, 5 μg/ml Siglec-7-Fc was coated overnight at RT in 96 well Immunolon plates, then washed with PBS, blocked for one hour with binding buffer (PBS containing %0.25 BSA 1 mM CaCl₂), Siglec-7 antibodies (0.5 μg/ml or 1.0 μg/ml) were bound for one hour at RT with gentle rocking. After removal of unbound antibody, red blood cells were added to each well at a concentration of 3.0×10⁶ cells per ml and incubated at RT for one hour. Unbound RBCs were then carefully washed off 3× with PBS, and water was added to each well for hypotonic lysis of bound RBCs. The plate was transferred to −80° C. for 10 minutes, followed by 37° C. for 15 minutes. Bound RBCs were detected by peroxidase activity, followed by 2N sulfuric acid to stop the reaction. Signal was detected at […]. Data was calculated as a percent of RBC binding to plate bound Siglec-7-Fc in the absence of antibody.

[8] = molecular target: T2, Histidine-tagged human Siglec-7 …; assay: SPR (BiaCore T200, 25 C), antibody captured on anti-mouse IgG, Siglec-7-His 25 nM, single-concentration kinetics
Method: as §3, §4, §5

T3 sequence (Q9Y286 19-357 limits assumed): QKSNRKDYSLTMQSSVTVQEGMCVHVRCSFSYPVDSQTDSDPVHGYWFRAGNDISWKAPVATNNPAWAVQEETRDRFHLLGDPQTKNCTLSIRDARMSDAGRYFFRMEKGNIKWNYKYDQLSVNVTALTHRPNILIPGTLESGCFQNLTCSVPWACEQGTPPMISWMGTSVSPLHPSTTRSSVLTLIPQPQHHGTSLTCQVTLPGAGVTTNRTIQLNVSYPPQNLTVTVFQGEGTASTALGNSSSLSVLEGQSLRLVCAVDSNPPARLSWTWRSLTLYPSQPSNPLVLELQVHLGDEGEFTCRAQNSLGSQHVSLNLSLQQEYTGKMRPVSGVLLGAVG
T2 sequence (Q9Y286 19-357 limits assumed): as above
T1 sequence (Q9Y286 19-467): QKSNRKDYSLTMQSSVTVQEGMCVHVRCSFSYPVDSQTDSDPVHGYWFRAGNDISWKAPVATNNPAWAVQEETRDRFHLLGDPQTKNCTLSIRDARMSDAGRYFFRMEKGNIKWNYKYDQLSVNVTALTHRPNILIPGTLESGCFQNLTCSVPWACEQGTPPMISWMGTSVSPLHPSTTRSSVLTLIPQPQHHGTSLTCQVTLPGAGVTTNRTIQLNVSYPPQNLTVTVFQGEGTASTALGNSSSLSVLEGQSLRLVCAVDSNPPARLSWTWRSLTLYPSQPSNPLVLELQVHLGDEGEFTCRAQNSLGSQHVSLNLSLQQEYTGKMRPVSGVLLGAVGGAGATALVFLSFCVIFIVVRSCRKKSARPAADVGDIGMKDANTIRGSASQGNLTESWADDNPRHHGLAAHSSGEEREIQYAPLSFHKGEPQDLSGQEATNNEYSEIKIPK

Percent Siglec-7 Surface Expression, DCs [1]: 1100%
Percent Siglec-7 Surface Expression, Monocytes [1]: 140%
Percent Siglec-7 Surface Expression, U937 cells [1]: 121%
% Positive [2]: 99.4%
MFI [2]: 577
Percent Siglec-7 Surface Expression, Macrophages [3]: 95.7%
Percent Siglec-7 Surface Expression, Microglia [3]: 106%
Percent Siglec-7 Surface Expression, NK cells [3]: 114%
% Positive [4]: 99.7%
MFI [4]: 10200
% Positive [5]: 99.5%
MFI [5]: 25700
Kd [6]: 0.1 nM
Percent RBC Binding to Siglec-7 [7]: 14.5%
B1: anti-Siglec-7 antibody 2G1 (antibody, V domains shown)
VH: EVKLVESGGTLVKPGGSLKISCAASGFTFSNYDMSWVRQNPEKRLEWVATISSGGDYTYYPDIFKGRFTISRDDAKNALYLQMSSLRSEDTALYYCARHGYGNYDWYFDVWGAGATVTVSS
VL: VLTQSPAIMSASPGEKVTMTCSANSSFIYMYWYQQKPGSSPRLLIFDTSNLASGVPIRFSGSGSGTSYSLTISRMEAEDTATYYCQQWSSSPLTFGGGTKLELK
notes: Variable domains assembled from FR and CDR entries; the printed VL FR1 looks shortened at its N-terminus; also called 2G11 (misprint in text)

Percent Siglec-7 Surface Expression, DCs [1]: 11%
Percent Siglec-7 Surface Expression, Monocytes [1]: 23.7%
Percent Siglec-7 Surface Expression, U937 cells [1]: 76.3%
% Positive [2]: 97.9%
MFI [2]: 407
Percent Siglec-7 Surface Expression, Macrophages [3]: 8.3%
Percent Siglec-7 Surface Expression, NK cells [3]: 77.1%
% Positive [4]: 99.7%
MFI [4]: 956
% Positive [5]: 99.7%
MFI [5]: 2840
Kd [6]: 1 nM
Percent RBC Binding to Siglec-7 [7]: 89.5%
B2: anti-Siglec-7 antibody 7A3 (antibody, V domains shown)
VH: LVZSGGALVKPGGSLKLSCAASGFTFSNYAMSWVRQTPEKRLEWVASISSGGSYNYYPDSVKGRFTISRDNARNTLYLQMSSLRSKDTAMYYCASQSYGSSYWYFDVWGAGTTVTVSS
VL: DIQMTQZPATLSVTPGDRVSLSCRASQSISEYLHWYHQKSHESPRLLIKFASQSICGIPSRFSGSGSGSDFTLTINSVEPEDVGVYYCQNGHNFPYTFGGGTKLEIK
notes: Variable domains assembled from FR and CDR entries; VL FR1 and VH FR1 hold Z and VH FR1 looks shortened at its N-terminus

Percent Siglec-7 Surface Expression, DCs [1]: 19.9%
Percent Siglec-7 Surface Expression, Monocytes [1]: 23.9%
Percent Siglec-7 Surface Expression, U937 cells [1]: 82.4%
% Positive [2]: 98.7%
MFI [2]: 380
Percent Siglec-7 Surface Expression, Macrophages [3]: 7.4%
Percent Siglec-7 Surface Expression, Microglia [3]: 34.2%
Percent Siglec-7 Surface Expression, NK cells [3]: 108%
Kd [8]: 1 nM
% Positive [4]: 99.6%
MFI [4]: 2520
% Positive [5]: 99.6%
MFI [5]: 4040
Percent RBC Binding to Siglec-7 [7]: 26.8%
B3: anti-Siglec-7 antibody 3E11 (antibody, V domains shown)
VH: QVQLQQSGAELARPGASVKLSCKASGYIFTDYGITWVKQRTGQGLEWIGEISPRSGETYFNENYRVKATLTADKSSSTAYMQLFSLTSEDSAVYFCAREGNPFTYWGHGTLVTVSA
VL: DVZMTQTPLSLPVSLGDQASISCRSSQSLVHSTGNTYLHWYLQKPGQSPKLLIYKVSNRFCGVPDRFSGSGAGTDFTLKISRVEAEDLGVYFCSQNTHVPYTFGGGTKLEIK
notes: Variable domains assembled from FR and CDR entries

— patent publication US20200277374A1 (Alector, published 2020)
